This note sets out measurements from article PMC6386588 (Molecular cell, 2019).

For this experiment, the target named is H-Ras protein: His tagged: human wild type (MST) (human, UniProt P01112 1-189). The experiment in a line: MST.
Chain of H-Ras protein: His tagged: human wild type (MST) (P01112 whole entry): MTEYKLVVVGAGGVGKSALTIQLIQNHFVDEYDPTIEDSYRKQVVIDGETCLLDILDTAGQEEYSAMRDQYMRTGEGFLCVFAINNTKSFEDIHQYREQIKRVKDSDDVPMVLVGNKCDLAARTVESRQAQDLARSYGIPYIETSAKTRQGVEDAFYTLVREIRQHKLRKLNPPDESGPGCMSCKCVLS

B1: FHH:MAPKAP1^RBD (AA279-353) (domain or fragment, UniProt Q9BPZ7 279-353, looked up)
chain: LFVRINAAHGFSLIQVDNTKVTMKEILLKAVKRRKGSQKVSGPQYRLEKQSEPNVAVDLDSTLESQSAWEFCLVR
modifications: RED-tris-NTA dye on the His tag (Monolith His-Tag Labeling Kit)
Take B1: the binding result is reported as “binds”.
